The values that follow come from the MegaScale stability set (Tsuboyama et al. 2023).

The chains are these.
B1: HEEH_KT_rd6_3546 (parent)
chain: SEEDKEREHWERLNRDFELRVLDTTFIAHHAEEVIKLLRWLEK
B2: 1ZHC (parent)
chain: HEFRDEISVLKANNPHFDKIFEKHNQLDDDIKTAEQQNASDAEVSHMKKQKLKLKDEIHSMIIEYREK

Variants of B1 are the subject of the first series. Put plainly: folding stability dG (cDNA display proteolysis); higher = more stable. The following applies: PBS, room temperature.
Take SIEDKEREHWERLNRDFELRVLDTTFIAHHAEEVIKLLRWLEK [E2I]: the “folding stability dG” value came to 1.6 kcal/mol.

With SNEDKEREHWERLNRDFELRVLDTTFIAHHAEEVIKLLRWLEK [E2N], the “folding stability dG” value came out at 1.38 kcal/mol.

For the variant SSEDKEREHWERLNRDFELRVLDTTFIAHHAEEVIKLLRWLEK [E2S], the “folding stability dG” value is 1.31 kcal/mol.

SYEDKEREHWERLNRDFELRVLDTTFIAHHAEEVIKLLRWLEK [E2Y]: the “folding stability dG” value was 1.45 kcal/mol.

With SMEDKEREHWERLNRDFELRVLDTTFIAHHAEEVIKLLRWLEK [E2M], the “folding stability dG” value was determined as 1.43 kcal/mol.

For the variant SEWDKEREHWERLNRDFELRVLDTTFIAHHAEEVIKLLRWLEK [E3W], the “folding stability dG” value is 1.65 kcal/mol.

SEHDKEREHWERLNRDFELRVLDTTFIAHHAEEVIKLLRWLEK [E3H]: the “folding stability dG” value was found to be 1.36 kcal/mol.

SEVDKEREHWERLNRDFELRVLDTTFIAHHAEEVIKLLRWLEK [E3V]: the “folding stability dG” value was 1.29 kcal/mol.

On to SEKDKEREHWERLNRDFELRVLDTTFIAHHAEEVIKLLRWLEK [E3K], for which the “folding stability dG” value worked out at 1.4 kcal/mol.

SEIDKEREHWERLNRDFELRVLDTTFIAHHAEEVIKLLRWLEK [E3I]: the “folding stability dG” value was found to be 1.56 kcal/mol.

As for SEADKEREHWERLNRDFELRVLDTTFIAHHAEEVIKLLRWLEK [E3A], the “folding stability dG” value was determined as 1.22 kcal/mol.

Take SEFDKEREHWERLNRDFELRVLDTTFIAHHAEEVIKLLRWLEK [E3F]: the “folding stability dG” value came out at 1.63 kcal/mol.

As to SESDKEREHWERLNRDFELRVLDTTFIAHHAEEVIKLLRWLEK [E3S], the “folding stability dG” value is 1.45 kcal/mol.

Regarding SEQDKEREHWERLNRDFELRVLDTTFIAHHAEEVIKLLRWLEK [E3Q], the “folding stability dG” value is 1.41 kcal/mol.

SEGDKEREHWERLNRDFELRVLDTTFIAHHAEEVIKLLRWLEK [E3G]: the “folding stability dG” value turned out to be 1.28 kcal/mol.

For the variant SEDDKEREHWERLNRDFELRVLDTTFIAHHAEEVIKLLRWLEK [E3D], the “folding stability dG” value amounted to 1.49 kcal/mol.

Regarding SEYDKEREHWERLNRDFELRVLDTTFIAHHAEEVIKLLRWLEK [E3Y], the “folding stability dG” value was determined as 1.39 kcal/mol.

With SEPDKEREHWERLNRDFELRVLDTTFIAHHAEEVIKLLRWLEK [E3P], the “folding stability dG” value is 1.3 kcal/mol.

Turning to SELDKEREHWERLNRDFELRVLDTTFIAHHAEEVIKLLRWLEK [E3L], the “folding stability dG” value amounted to 1.61 kcal/mol.

As for SEMDKEREHWERLNRDFELRVLDTTFIAHHAEEVIKLLRWLEK [E3M], the “folding stability dG” value came out at 1.33 kcal/mol.

SETDKEREHWERLNRDFELRVLDTTFIAHHAEEVIKLLRWLEK [E3T]: the “folding stability dG” value was 1.19 kcal/mol.

Take SERDKEREHWERLNRDFELRVLDTTFIAHHAEEVIKLLRWLEK [E3R]: the “folding stability dG” value came out at 1.48 kcal/mol.

In the case of SENDKEREHWERLNRDFELRVLDTTFIAHHAEEVIKLLRWLEK [E3N], the “folding stability dG” value is 1.51 kcal/mol.

The next series covers variants of B2. The series is described as above. The note with it: PBS, room temperature.
With HEFRDEISVLKANNPHFDKIFEKHNQLDDDIKTAEQQNASDAEVSHMKKQKLKLKDEIHSMIIEYRYK [E67Y], the “folding stability dG” value came out at 0.933 kcal/mol.

For HEFRDEISVLKANNPHFDKIFEKHNQLDDDIKTAEQQNASDAEVSHMKKQKLKLKDEIHSMIIEYRRK [E67R], the “folding stability dG” value is 1.3 kcal/mol.

With HEFRDEISVLKANNPHFDKIFEKHNQLDDDIKTAEQQNASDAEVSHMKKQKLKLKDEIHSMIIEYRMK [E67M], the “folding stability dG” value is 0.866 kcal/mol.

In the case of HEFRDEISVLKANNPHFDKIFEKHNQLDDDIKTAEQQNASDAEVSHMKKQKLKLKDEIHSMIIEYRQK [E67Q], the “folding stability dG” value is 1.18 kcal/mol.

Take HEFRDEISVLKANNPHFDKIFEKHNQLDDDIKTAEQQNASDAEVSHMKKQKLKLKDEIHSMIIEYRVK [E67V]: the “folding stability dG” value was found to be 0.889 kcal/mol.

Consider HEFRDEISVLKANNPHFDKIFEKHNQLDDDIKTAEQQNASDAEVSHMKKQKLKLKDEIHSMIIEYRLK [E67L], for which the “folding stability dG” value came out at 1.02 kcal/mol.

For HEFRDEISVLKANNPHFDKIFEKHNQLDDDIKTAEQQNASDAEVSHMKKQKLKLKDEIHSMIIEYRWK [E67W], the “folding stability dG” value was 0.996 kcal/mol.

Consider HEFRDEISVLKANNPHFDKIFEKHNQLDDDIKTAEQQNASDAEVSHMKKQKLKLKDEIHSMIIEYRNK [E67N], for which the “folding stability dG” value is 1.26 kcal/mol.

Turning to HEFRDEISVLKANNPHFDKIFEKHNQLDDDIKTAEQQNASDAEVSHMKKQKLKLKDEIHSMIIEYRTK [E67T], the “folding stability dG” value came out at 1.38 kcal/mol.

Take HEFRDEISVLKANNPHFDKIFEKHNQLDDDIKTAEQQNASDAEVSHMKKQKLKLKDEIHSMIIEYRKK [E67K]: the “folding stability dG” value turned out to be 1.08 kcal/mol.

HEFRDEISVLKANNPHFDKIFEKHNQLDDDIKTAEQQNASDAEVSHMKKQKLKLKDEIHSMIIEYRSK [E67S]: the “folding stability dG” value stood at 1.04 kcal/mol.

As for HEFRDEISVLKANNPHFDKIFEKHNQLDDDIKTAEQQNASDAEVSHMKKQKLKLKDEIHSMIIEYREF [K68F], the “folding stability dG” value turned out to be 0.363 kcal/mol.

Consider HEFRDEISVLKANNPHFDKIFEKHNQLDDDIKTAEQQNASDAEVSHMKKQKLKLKDEIHSMIIEYRED [K68D], for which the “folding stability dG” value is -0.648 kcal/mol.

With HEFRDEISVLKANNPHFDKIFEKHNQLDDDIKTAEQQNASDAEVSHMKKQKLKLKDEIHSMIIEYRER [K68R], the “folding stability dG” value came out at 1.2 kcal/mol.

On to HEFRDEISVLKANNPHFDKIFEKHNQLDDDIKTAEQQNASDAEVSHMKKQKLKLKDEIHSMIIEYREM [K68M], for which the “folding stability dG” value worked out at 0.491 kcal/mol.

In the case of HEFRDEISVLKANNPHFDKIFEKHNQLDDDIKTAEQQNASDAEVSHMKKQKLKLKDEIHSMIIEYREC [K68C], the “folding stability dG” value was 0.745 kcal/mol.

For HEFRDEISVLKANNPHFDKIFEKHNQLDDDIKTAEQQNASDAEVSHMKKQKLKLKDEIHSMIIEYREH [K68H], the “folding stability dG” value was 0.512 kcal/mol.

As for HEFRDEISVLKANNPHFDKIFEKHNQLDDDIKTAEQQNASDAEVSHMKKQKLKLKDEIHSMIIEYREV [K68V], the “folding stability dG” value amounted to 0.338 kcal/mol.

In the case of HEFRDEISVLKANNPHFDKIFEKHNQLDDDIKTAEQQNASDAEVSHMKKQKLKLKDEIHSMIIEYREE [K68E], the “folding stability dG” value was -0.339 kcal/mol.

As for HEFRDEISVLKANNPHFDKIFEKHNQLDDDIKTAEQQNASDAEVSHMKKQKLKLKDEIHSMIIEYREQ [K68Q], the “folding stability dG” value was found to be 0.861 kcal/mol.

Turning to HEFRDEISVLKANNPHFDKIFEKHNQLDDDIKTAEQQNASDAEVSHMKKQKLKLKDEIHSMIIEYREG [K68G], the “folding stability dG” value is 0.495 kcal/mol.

On to HEFRDEISVLKANNPHFDKIFEKHNQLDDDIKTAEQQNASDAEVSHMKKQKLKLKDEIHSMIIEYREW [K68W], for which the “folding stability dG” value amounted to 0.673 kcal/mol.

For HEFRDEISVLKANNPHFDKIFEKHNQLDDDIKTAEQQNASDAEVSHMKKQKLKLKDEIHSMIIEYREY [K68Y], the “folding stability dG” value turned out to be 0.578 kcal/mol.

In the case of HEFRDEISVLKANNPHFDKIFEKHNQLDDDIKTAEQQNASDAEVSHMKKQKLKLKDEIHSMIIEYRES [K68S], the “folding stability dG” value is 0.62 kcal/mol.

Turning to HEFRDEISVLKANNPHFDKIFEKHNQLDDDIKTAEQQNASDAEVSHMKKQKLKLKDEIHSMIIEYRET [K68T], the “folding stability dG” value came to 0.49 kcal/mol.

As to HEFRDEISVLKANNPHFDKIFEKHNQLDDDIKTAEQQNASDAEVSHMKKQKLKLKDEIHSMIIEYREN [K68N], the “folding stability dG” value amounted to 0.792 kcal/mol.

In the case of HEFRDEISVLKANNPHFDKIFEKHNQLDDDIKTAEQQNASDAEVSHMKKQKLKLKDEIHSMIIEYREL [K68L], the “folding stability dG” value was 0.469 kcal/mol.

For the variant HEFRDEISVLKANNPHFDKIFEKHNQLDDDIKTAEQQNASDAEVSHMKKQKLKLKDEIHSMIIEYREI [K68I], the “folding stability dG” value came to 0.298 kcal/mol.

For HEFRDEISVLKANNPHFDKIFEKHNQLDDDIKTAEQQNASDAEVSHMKKQKLKLKDEIHSMIIEYREA [K68A], the “folding stability dG” value was found to be 0.786 kcal/mol.
